According to patent US20060008801A1 (EFFECTOR CELL INSTITUTE, published 2006):

Molecular target: T1, myc-p53 (isotope-labeled myc-fused recombinant p53, made in vitro from pAS2-1-p53) (UniProt P02340 72-390, isotope-labeled)
T1 construct: Control of the coimmunoprecipitation
Assay: coimmunoprecipitation of isotope-labeled recombinant proteins, SDS-PAGE
Excerpt: In the second test, coding sequences of pAS2-1-CCR2b and pAS2-1-p53 were amplified by PCR using a T7 promoter, a 5′ primer encoding myc epitope: 5′[…] 3′ (SEQ ID NO:44) and a 3′ primer originating in p AS2-1: 5′[…]3′ (SEQ ID NO:45) to express an epitope-tagged protein. Similarly, pACT2-FROUNT was amplified by PCR using a T7 promoter, a 5′ primer encoding HA epitope: 5′[…]3′ (SEQ ID NO:46) and a 3′ primer originating in p ACT2: 3′[…]5′ (SEQ ID NO:47). Then, isotope-labeled recombinant proteins were produced in accordance with user's manual of […] Co-IP Kit (CLONTECH Laboratories, Inc.). By the coimmunoprecipitation method using these recombinant proteins, the specific binding ability between CCR2 and FROUNT was confirmed again (FIG. 2). […] Namely, coprecipitation occurred by using the HA- or Myc-specific antibody in the coexistence of myc-CCR2 and HA-FNT, the coprecipitation disappeared by adding an antigen peptide and no coprecipitation occurred in the case of myc-p53, thereby indicating specific binding ability.

T1 sequence (P02340 72-390): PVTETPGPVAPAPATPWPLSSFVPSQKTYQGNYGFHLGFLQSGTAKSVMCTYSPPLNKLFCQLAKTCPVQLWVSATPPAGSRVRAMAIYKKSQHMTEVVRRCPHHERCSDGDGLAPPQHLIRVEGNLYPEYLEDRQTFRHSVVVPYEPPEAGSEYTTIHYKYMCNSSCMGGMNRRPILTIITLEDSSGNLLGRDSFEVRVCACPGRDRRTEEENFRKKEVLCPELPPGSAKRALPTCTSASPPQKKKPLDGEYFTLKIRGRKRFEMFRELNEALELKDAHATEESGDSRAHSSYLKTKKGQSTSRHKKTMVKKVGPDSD

B1: HA-FNT (isotope-labeled HA-fused recombinant FROUNT protein, clone 19 part, made in vitro from pACT2-FROUNT) (other)
chain: LVSDRFLRDYCERGCFSDLDLIDNLGPAMMLSDRLTFLGKYREFHRMYGEKRFADAASLLLSLMTSRIAPRSFWMTLLTDALPLLEQKQVIFSAEQTYELMRCLEDLTSRRPVHGESDTEQLQDDDIETTKVEMLRLSLARNLARAIIREGSLEGS
modifications: isotope-labeled
notes: Co-IP Kit by PCR from pACT2-FROUNT; also called HA-tagged recombinant FROUNT protein; not shown: vector-encoded residues m
Question: Does B1 bind?
Answer: Result: no binding
